As usually defined, the Kd is the concentration at which binding is half-saturated. The low end stands for tighter binding, the high end for weaker binding.

T1: EsCas13d, nuclease-dead (Eubacterium siraeum, UniProt B0MS50, R295A;H300A;R849A;H854A)
T1 sequence: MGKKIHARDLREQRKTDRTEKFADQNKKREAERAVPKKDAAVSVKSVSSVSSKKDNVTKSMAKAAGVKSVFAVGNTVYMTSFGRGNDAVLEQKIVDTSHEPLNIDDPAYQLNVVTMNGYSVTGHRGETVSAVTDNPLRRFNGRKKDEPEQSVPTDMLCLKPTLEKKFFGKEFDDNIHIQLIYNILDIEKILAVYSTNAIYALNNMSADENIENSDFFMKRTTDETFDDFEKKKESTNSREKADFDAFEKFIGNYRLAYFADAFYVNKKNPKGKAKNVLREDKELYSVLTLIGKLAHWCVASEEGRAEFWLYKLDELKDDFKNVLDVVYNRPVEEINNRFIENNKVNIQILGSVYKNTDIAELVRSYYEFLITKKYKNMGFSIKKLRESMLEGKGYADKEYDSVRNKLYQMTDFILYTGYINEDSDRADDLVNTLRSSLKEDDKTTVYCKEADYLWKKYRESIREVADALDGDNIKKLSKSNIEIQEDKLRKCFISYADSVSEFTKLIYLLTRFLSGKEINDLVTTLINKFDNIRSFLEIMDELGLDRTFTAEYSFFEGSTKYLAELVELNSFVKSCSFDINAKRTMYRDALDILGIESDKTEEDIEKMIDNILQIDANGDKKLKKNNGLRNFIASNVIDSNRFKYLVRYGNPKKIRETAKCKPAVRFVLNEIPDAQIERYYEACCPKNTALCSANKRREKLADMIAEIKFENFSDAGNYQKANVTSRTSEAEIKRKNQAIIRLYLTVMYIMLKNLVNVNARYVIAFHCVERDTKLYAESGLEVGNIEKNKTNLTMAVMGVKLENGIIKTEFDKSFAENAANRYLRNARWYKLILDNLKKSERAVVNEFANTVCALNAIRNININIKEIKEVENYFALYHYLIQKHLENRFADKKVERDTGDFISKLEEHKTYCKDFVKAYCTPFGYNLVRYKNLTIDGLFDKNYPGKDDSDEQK

B1: target 2 MT 5'PFS AAU 3'PFS CAC (mixed)
RNA 1: CACCCGUGCAAAAUUGCAGGGGUCUAAAACCUUCUCCAAAUUGUUUCAUCCU
RNA 2: GGGAAUGGAUCCACAUCUACGAAUUCAAUAGGAUGAAACAAUUUGGAGAAGCACAGAUCGGAAGAGCACACGU
B2: target 2 MT 5'PFS GGG 3'PFS UCU (mixed)
RNA 1: B1 RNA 1
RNA 2: B1 RNA 2 with A27G, A28G, U29G, C52U, A53C, C54U
B3: target 2 MT 5'PFS GUU 3'PFS CCA (mixed)
RNA 1: B1 RNA 1
RNA 2: B1 RNA 2 with A27G, A28U, A53C, C54A
B4: target 2 MT 5'PFS GGG 3'PFS UCA (mixed)
RNA 1: B1 RNA 1
RNA 2: B1 RNA 2 with A27G, A28G, U29G, C52U, A53C, C54A
B5: target 2 MT 5'PFS AUU 3'PFS UCA (mixed)
RNA 1: B1 RNA 1
RNA 2: B1 RNA 2 with A28U, C52U, A53C, C54A
B6: target 2 MT 5'PFS AGC 3'PFS CCA (mixed)
RNA 1: B1 RNA 1
RNA 2: B1 RNA 2 with A28G, U29C, A53C, C54A
B7: target 2 MT 5'PFS GUU 3'PFS CCG (mixed)
RNA 1: B1 RNA 1
RNA 2: B1 RNA 2 with A27G, A28U, A53C, C54G
B8: target 2 MT 5'PFS GGG 3'PFS UCG (mixed)
RNA 1: B1 RNA 1
RNA 2: B1 RNA 2 with A27G, A28G, U29G, C52U, A53C, C54G
B9: target 2 MT 5'PFS GGG 3'PFS UCC (mixed)
RNA 1: B1 RNA 1
RNA 2: B1 RNA 2 with A27G, A28G, U29G, C52U, A53C
B10: target 2 MT 5'PFS UAG 3'PFS CCC (mixed)
RNA 1: B1 RNA 1
RNA 2: B1 RNA 2 with A27U, U29G, A53C
B11: target 2 MT 5'PFS AAU 3'PFS CAA (mixed)
RNA 1: B1 RNA 1
RNA 2: B1 RNA 2 with C54A
B12: target 2 MT 5'PFS GAA 3'PFS CAU (mixed)
RNA 1: B1 RNA 1
RNA 2: B1 RNA 2 with A27G, U29A, C54U
B13: target 2 MT 5'PFS AAU 3'PFS CAU (mixed)
RNA 1: B1 RNA 1
RNA 2: B1 RNA 2 with C54U
B14: target 1 insU 3' of 2,insA 3' of 2 (mixed)
RNA 1: CACCCGUGCAAAAAUGCAGGGGUCUAAAACUGAGCGGAUAACCUCUCUAUGG
RNA 2: GGGAAUGGAUCCACAUCUACGAAUUCGUACCAUAGAGAGGUUAUCCGCUCUAACCGAGAUCGGAAGAGCACACGU
B15: target 1 A1G,C6G (mixed)
RNA 1: B14 RNA 1
RNA 2: GGGAAUGGAUCCACAUCUACGAAUUCGUACCAUAGAGAGGUUAUCGGCUCGCCGAGAUCGGAAGAGCACACGU
B16: target 1 insC 3' of 17,insC 3' of 15 (mixed)
RNA 1: B14 RNA 1
RNA 2: GGGAAUGGAUCCACAUCUACGAAUUCGUACCAUAGCAGCAGGUUAUCCGCUCACCGAGAUCGGAAGAGCACACGU

Changes are numbered by the printed parent chain. In names and notes the source's numbering stands.

This data set addresses T1, EsCas13d, nuclease-dead. As to the kind of experiment: crRNA (strand 1, pre-loaded); Mg2+; 40 mM Tris-HCl pH 7.5, 150 mM NaCl, 6 mM MgCl2, 1 mM DTT, 0.1% Tween-20, 0.2 mg/ml BSA; 25 C; 10 min per concentration, then washed. Particulars: tags: His6-TwinStrep-SUMO cleaved; N-terminal SNAP kept (SNAP-Surface 488); label: 3' end held by stalled T7 RNA polymerase.
For B1, binding was put at a Kd of 5.2 ± 1 nM.

B2: the Kd was determined as 12.1 ± 0.8 nM.

The molecule B3 gave a Kd of around 90 nM.

B4 showed a Kd of 11.3 ± 1.5 nM.

B5 returned a Kd of 7 ± 0.8 nM.

In the case of B6, the affinity, expressed as Kd, was 78 ± 32 nM.

Molecule B7 had a Kd of 14.3 ± 1.2 nM. Against the preceding molecule, the Kd is about 5.5-fold lower.

In turn, B8 showed a Kd of 11.5 ± 0.8 nM. This Kd and that of the molecule before are within 1.5-fold of each other.

B9 came in with a Kd of 52 ± 14 nM. Against the preceding molecule, the Kd is about 4.5-fold higher.

In turn, B10 had a Kd of 24 ± 9 nM.

B11 registered a Kd of 4.3 ± 0.7 nM.

In turn, B12 showed a Kd of 8.6 ± 1.7 nM.

B13 displayed an equilibrium dissociation constant (Kd) of 3 ± 0.6 nM.

B14: the Kd was found to be 10.9 ± 0.5 nM.

For the molecule B15, the Kd is 7.3 ± 0.4 nM.

B16 displayed a Kd of 38 ± 6 nM. This Kd is about 5.2-fold higher than that of the molecule before.
